{"source": "patent US20110086044A1", "about": "“Compositions and Methods to Inhibit HPV Infection” (University of Southern California, priority 2009, published 2011)", "key": {"[1]": {"system": "ANXA2", "assay": "siRNA inhibition of ANXA2 in LC, ANXA2 protein expression by immunoblot", "assay_type": "cell-based, human", "details": "Amaxa nucleofection", "description": "(§1) FIGS. 8A & B are gel pictures showing downregulation of ANXA2 inhibits uptake of HPV16L1L2 VLP. A. LC were transfected using the Amaxa Nucleofector kit without siRNA (Untreated), with control siRNA or with two different ANXA2 siRNA sequences. The cells were incubated for 6 days before analysis of ANXA2 protein expression by immunoblot. GAPDH served as the loading control. One representative experiment of three is shown. B. LC were transfected using the Amaxa Nucleofector kit without siRNA (Untreated), with control siRNA or with ANXA2 siRNA #2. The cells were incubated for 6 days and exposed to CFDA-SE labeled HPV16L1L2 VLP for 15 min. Uptake was assessed by flow cytometry.\n(§2) siRNA Inhibition of ANXA2 in LC and HPV16 VLP Uptake Assay. ANXA2 siRNA was synthesized at the USC Genomics Core (Los Angeles, Calif.) based on the sequences: ANXA2 siRNA #1 ([…])/([…]) (SEQ ID NO: 5); ANXA2 siRNA #2 ([…])/([…]) (SEQ ID NO: 6). Control siRNA was from (S76). ANXA2 or Control siRNA was transfected into LC using the Amaxa Human Dendritic Cell Nucleofector kit (Lonza) as directed by the manufacturer's instructions. The cells were incubated for 6 days before they were analyzed by an anti-ANXA2 immunoblot and used in an HPV16 VLP uptake assay. HPV VLP were labeled with CFDA-SE as described above. […] Finally, HPV16 VLP uptake by LC was assessed via flow cytometry."}, "[2]": {"system": "HPV16L1L2 VLP", "assay": "HPV16L1L2 VLP uptake assay in siRNA-transfected LC (flow cytometry)", "assay_type": "cell-based, human", "details": "6 days after transfection, VLP 15 min; compared to untreated and control siRNA treated LC", "description": "as §1, §2"}, "[3]": {"details": "cited from earlier work"}, "[4]": {"system": "HPV16L1L2 VLP", "assay": "HPV16L1L2 VLP binding assay on Langerhans cells (flow cytometry, H16.V5 antibody)", "assay_type": "cell-based, human", "details": "increasing peptide concentrations (1-100 μg)/0.5×10^6 cells, 1 h at 4° C.", "description": "LC were incubated with increasing concentrations of the L2108-120 peptide and subsequently incubated with HPV16L1L2 VLP. HPV16L1L2 VLP remaining on the surface of LC were detected using a L1 specific conformational antibody (H16.V5). Binding was assessed by flow cytometry.\nHPV16L1L2 VLP Binding Assay. LC were incubated with the HPV16 L2 peptide aa 108-120 ([…] SEQ ID NO: 4) (Kawana et al. (2001) J. Virol. 75: 2331-6) at varying concentrations (1-100 μg)/0.5×10^6 cells for 1 h at 4° C. Subsequently, the LC were incubated with 0.25 μg of HPV16L1L2 VLP/treatment for 1 h at 4° C. and then incubated with an anti-L1 (H16.V5) antibody (a gift from Neil Christensen, Penn State University) at a concentration of 1:25,000 for 30 min at 4° C. The cells were then incubated with biotinylated anti-mouse-IgG2b at a concentration of 1:50 for 30 min at 4° C. Next, the HPV16L1L2 VLP/anti-L1/biotin treated cells were stained with streptavidin-FITC at a concentration of 1:50 for 30 min. The cells were washed between each incubation with 135 μl FACS buffer. In control experiments, cells were left untreated or probed with either peptide/anti-L1/biotin-strepavidin-FITC or VLP/anti-L1/biotin-strepavidin-FITC. Finally, HPV16L1L2 VLP binding to LC was assessed by flow cytometry. Binding is calculated as the MFI of the sample divided by the MFI of the untreated control multiplied by 100."}, "[5]": {"target": "T1, ANXA2 heterotetramer (Homo sapiens, UniProt P07355)", "T1 construct": "endogenous in cells; host or cells: human monocyte-derived Langerhans cells (from PBL of healthy donors)", "T1 sequence (P07355 2-339 limits assumed)": "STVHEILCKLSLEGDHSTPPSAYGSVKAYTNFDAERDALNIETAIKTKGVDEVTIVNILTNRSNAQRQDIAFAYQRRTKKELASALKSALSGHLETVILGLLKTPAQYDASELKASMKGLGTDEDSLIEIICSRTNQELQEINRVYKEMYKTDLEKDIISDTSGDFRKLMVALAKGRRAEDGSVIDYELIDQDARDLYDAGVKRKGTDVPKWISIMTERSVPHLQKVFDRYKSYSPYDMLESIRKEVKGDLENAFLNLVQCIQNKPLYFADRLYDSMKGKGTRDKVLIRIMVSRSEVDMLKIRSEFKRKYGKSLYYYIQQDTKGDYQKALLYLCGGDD", "T1 sequence (P60903 2-97 partner limits assumed)": "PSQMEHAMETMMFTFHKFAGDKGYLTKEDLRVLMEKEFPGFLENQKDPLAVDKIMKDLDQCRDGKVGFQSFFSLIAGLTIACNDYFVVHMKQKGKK", "assay": "L2108-120 peptide pulldown assay from Langerhans cells (silver stain, mass spectrometry, immunoblot)", "assay_type": "binding", "description": "LC were incubated with either no peptide or 50 μg/5×10^5 cells of 6×His-L2108-120 peptide and subsequently cross-linked with DTSSP. Cells were then lysed and mixed with a Ni-NTA agarose slurry overnight and ten fractions were eluted. Non-reduced eluates were electrophoresed, transferred to nitrocellulose and probed with an anti-ANXA2 antibody or an anti-6×His antibody, followed by a peroxidase-labeled secondary antibody. Antibody binding was detected with enhanced chemiluminescence.\nA. LC were incubated with either no peptide or (6×)His-L2108-120 peptide and subsequently cross-linked with DTSSP. Cells were lysed and mixed with a Ni-NTA agarose slurry and eluted. Reduced eluate 5 was electrophoresed and silver stained. The unique band right above ˜39 kDa was isolated and analyzed by mass spectrometry. One representative experiment of two is shown. B. LC were incubated with either no peptide or (6×)His-L2108-120 peptide and subsequently cross-linked with DTSSP. Cells were then lysed and mixed with a Ni-NTA agarose slurry overnight and eluted. Eluates were then electrophoresed, transferred to nitrocellulose and probed with either an anti-ANXA2 or an anti-ANXA2 light chain antibody. […]. One representative experiment of two is shown.\nL2108-120 Peptide Pulldown Assay. […] The eluates were collected and analyzed by non-reducing immunoblots and reduced silver stain gels. […]"}, "[6]": {"system": "HPV16L1L2 VLP", "assay": "HPV16 VLP uptake assay with SLPI: uptake of CFDA-SE labeled HPV16L1L2 VLP by Langerhans cells (flow cytometry)", "assay_type": "cell-based, human", "description": "(§3) LC were left untreated or incubated with 30 μg human recombinant SLPI (R&D Systems) for 1 h at 4° C. Subsequently, the cells were washed and incubated with CFDA-SE-labeled HPV16 L1 VLP or HPV16 L1L2 VLP at 37° C. After 15 min, cells were washed at 4° C., then fixed with 1% paraformaldehyde and analyzed for intracellular CFDA-SE by flow cytometry. Percent of VLP uptake was calculated using the following equation: [(MFI experimental plus SLPI)−(MFI background)/[(MFI experimental untreated cells)−(MFI background)]×100. Shown is the average uptake of 3 experiments (±SEM). *p=0.04 compared to untreated LC.\n(§4) FIGS. 7A & B are charts showing that SLPI inhibits the uptake of HPV16L1L2 VLP by LC. A. LC were incubated with increasing concentrations of SLPI, then incubated with CFDA-SE labeled HPV16L1L2 VLP for 15 min. Uptake of CFDA-SE labeled HPV16L1L2 VLP by LC was assessed by flow cytometry. The mean percentage of uptake ±SEM of three separate experiments is presented (*P<0.05 by a two-tailed, paired t-test, as compared to the negative control). […] Uptake of CFDA-SE labeled HPV16 VLP by LC was assessed by flow cytometry. […]\n(§5) HPV16 VLP Uptake Assay with SLPI. […] Finally, HPV16 VLP uptake by LC was assessed via flow cytometry. Percent uptake is calculated as the mean fluorescent intensity (MFI) of the sample divided by the MFI of the untreated control multiplied by 100."}, "[7]": {"system": "HPV16L1 VLP", "assay": "HPV16 VLP uptake assay with SLPI: uptake of CFDA-SE labeled HPV16L1 VLP by Langerhans cells (flow cytometry)", "assay_type": "cell-based, human", "details": "SLPI 30 ug/ml (optimal concentration), VLP 15 min; Example 2", "description": "as §3, §4, §5"}}, "data": [{"molecule": "(CGGGAUGCUUUGAACAUUGAATT)/(UUCAAUGUUCAAAGCAUCCCGTT) (chemistry not given here) [ANXA2 siRNA #2]", "values": [{"measurement": "time of optimal ANXA2 protein knockdown post-transfection", "setting": "[1]", "value": 6, "unit": "days"}, {"measurement": "uptake of HPV16L1L2 VLP into LC", "setting": "[2]", "value": "significantly reduced the uptake of HPV16L1L2 VLP into LC"}]}, {"molecule": "CCOCc1nc2c(N)nc3ccccc3c2[nH]1", "note": "[CL097]", "values": [{"measurement": "water solubility", "setting": "[3]", "value": "≤ 20", "unit": "mg/mL"}]}, {"molecule": "LVEETSFIDAGAP (listed as Human papillomavirus) [L2108-120 peptide]", "values": [{"measurement": "HPV16L1L2 VLP bound to the LC surface", "setting": "[4]", "value": "significantly decreased numbers of HPV16L1L2 VLP bound to the LC surface"}, {"measurement": "proteins in pulldown eluates by immunoblot", "setting": "[5]; anti-ANXA2 and anti-ANXA2 light chain antibodies", "value": "both ANXA2 and ANXA2 light chain were present"}]}, {"molecule": "(6×)His-L2108-120 peptide: 6×His-tagged HPV16 L2 aa 108-120 peptide used for pulldown (HHHHHHLVEETSFIDAGAP)", "values": [{"measurement": "protein pulled down from LC, unique silver-stain band identified by mass spectrometry", "setting": "[5]; 50 μg/0.5×10^6 cells, DTSSP cross-linking, elution 5", "value": "predicted to be annexin A2 (ANXA2)"}]}, {"molecule": "SLPI: recombinant human secretory leukocyte protease inhibitor (R&D Systems), serine protease inhibitor and ligand of ANXA2; SEQ ID NO: 2 (protein, listed as Homo sapiens) MKSSGLFPFLVLLALGTLAPWAVEGSGKSFKAGVCPPKKSAQCLRYKKPECQSDWQCPGKKRCCPDTCGIKCLDPVDTPNPTRRKPGKCPVTYGQCLMLNPPNFCEMDGQCKRDLKCCMGMCGKSCVSPVKA", "values": [{"measurement": "uptake of HPV16L1L2 VLP into LC", "setting": "[6]; 30 μg SLPI 1 h at 4° C., then VLP 15 min at 37° C., FIG. 2, 3 experiments", "value": "blocks HPV16 L1L2 VLP uptake into LC"}, {"measurement": "internalization of HPV16L1L2 VLP by LC", "setting": "[6]; increasing concentrations (5-30 μg/ml) of SLPI, VLP 15 min, Example 2", "value": "LC internalized decreasing amounts of HPV16L1L2 VLP"}, {"measurement": "internalization of HPV16L1 VLP by LC", "setting": "[7]", "value": "did not inhibit HPV16L1 VLP uptake"}]}]}
